Experiments:
[1] = Competitive ELISA, relative CTS specificity, DIG as competitor; assay type: binding; conditions: competition with immobilized MBG-BSA; normalized to MBG = 100%
Protocol: (§1) The specificity (relative affinity) of anti-MBG antibodies for MBG relative to various cardiotonic steroids (CTSs) was determined in a competitive ELISA. Each anti-MBG antibody was tested for its binding to immobilized MBG in the presence of free MBG, resibufogenin (RBG), cinobufagin (CINO), ouabain (OUB) or digoxin (DIG) as a competitor. A constant amount of an anti-MBG antibody (typically 1-5 μg/mL) and varying concentrations of each CTS (from 10^−12M to 10^−5M) were pre-incubated before being added to the MBG-BSA-coated wells. After washing of the wells, an anti-human Fc, HRP-conjugated secondary antibody (at 1:5000 dilution) was added to the wells and incubated at 37° C. for 1 hr. After washing of the wells, an appropriate HRP reagent (e.g., TMB ultra, Thermo Fisher) was added to the wells. OD at 450 nm was measured by a microplate reader. MBG at 10 μM was assumed to be 100% competed, and MBG at 1 pM was assumed to be 0% competed. The data was plotted as a titration of antibody-antigen binding relative to free CTS concentration in the competition reaction to determine the free CTS concentration (μM) giving 50% maximal binding of antibody to immobilized MBG. The relative specificity of an antibody for a CTS was normalized to MBG=100%.

[2] = Competitive ELISA, relative CTS specificity, CINO as competitor; assay type: binding; conditions: competition with immobilized MBG-BSA; normalized to MBG = 100%
Protocol: as §1

[3] = test system: PKC-δ in the nucleus of primary rat cardiac fibroblasts; assay: Inhibition of MBG-induced PKC-δ nuclear translocation (Western blot); conditions: MBG 10 nM; FIG. 2b
Protocol: MBG was incubated with an anti-MBG antibody prior to addition to cultured primary rat cardiac fibroblasts. Nuclei were isolated 30 min later and analyzed for amount of PKC-6.

[4] = ELISA avidity estimate on MBG-BSA; assay type: binding; conditions: wells coated with 2 μg/ml MBG-BSA; IgG
Protocol: The avidity of anti-MBG antibodies for MBG was estimated in an ELISA. Wells of a microtiter plate were coated with 2 μg/ml of either MBG-bovine serum albumin (BSA) or MBG-keyhole limpet hemocyanin (KLH). The wells were then blocked with 1% BSA. A test IgG antibody at varying concentrations (typically from about 0.0001 nM to about 25 nM) was added to the wells. The test IgG bound to immobilized MBG was detected with an anti-human Fc, horseradish peroxidase (HRP)-conjugated secondary antibody (Jackson ImmunoResearch). After washing of the wells, an appropriate HRP reagent (e.g., TMB ultra, Thermo Fisher) was added to the wells. Optical density (OD) at 450 nm was measured by a microplate reader. The concentration of test antibody at the midpoint of the binding curve is an estimate of avidity for MBG.

Na^+K^+-ATPase (NKA) = assay: Na^+K^+-ATPase activity (Malachite Green Phosphate Assay); assay type: biochemical, rat; conditions: anti-MBG antibodies 1-100 μg/mL; FIG. 4
Protocol: Na^+K^+-ATPase (NKA) was purified from rat heart. The NKA was collected as the sarcolemmal/particulate (SLP) fraction and frozen.
Na^+K^+-ATPase activity was measured as follows: aliquots of SLP were mixed with Reaction Buffer (200 mM Tris-HCl, pH 7.5, 200 mM NaCL, 30 mM MgCl2, 60 mM KCl, 10 mM EGTA, 100 μg/mL PMSF, 2 μg/mL pepstatin A, and 2 μg/mL aprotinin). Reactions were performed with or without MBG and with or without anti-MBG antibodies (1-100 μg/mL). Ouabain was used as positive control for NKA inhibition. Tubes were prewarmed, and ATP was added. Reactions were stopped and were placed on ice.
Phosphate was assayed using the Malachite Green Phosphate Assay. Phosphate standard or sample was added to each well of a 96-well plate, followed by Reagent A. Reagent B was added, with mixing and incubation. OD was then read at 630 nm in a microplate spectrophotometer.

[5] = Direct ELISA antigen binding of humanized anti-MBG; conditions: 2 μg/ml MBG-conjugated BSA coated; OD 450 nm; among the 6 humanized antibodies; FIG. 1a, 1b
Protocol: The antigen binding of humanized anti-MGB was assayed in a direct Elisa assay. 2 μg/ml of MBG-conjugated BSA was coated in the Elisa plate. After blocking with 1% BSA, 2-fold dilution series of humanized anti-MBG was added to the plate. After washing, the bound antibody was detected by adding anti-human Fc HRP conjugate, and quantified by adding the TMB substrate. OD absorption at 450 nm was measured in a microplate reader.

B1: H3L2: humanized anti-MBG antibody, VH H3 (SEQ ID NO: 11) with VL L2 (SEQ ID NO: 13) (antibody, V domains shown)
VH: EVQLQESGPGLVKPSETLSLTCTVSGDSITSGYWNWIRQPPGKGLEYMGYISYSGTTYYNPSLKSRITISRDTSKNQYSLKLSSVTAADTAVYYCARARYGYGFDYWGQGTLVTVSS
VL: DVVMTQSPLSLPVTLGQPASISCRSSQSIVHSNRNTYLEWYQQRPGQSPRLLIYKVSNRFSGVPDRFSGSGSGTDFTLKISRVEAEDVGVYYCFQGSHVPLTFGGGTKVEIK
modifications: Humanized VH sequence; Humanized VL sequence
[1]
  Rel. CTS Specificity as % of MBG Binding: DIG: 0%
[2]
  Rel. CTS Specificity as % of MBG Binding: CINO: 0%
[3]
  PKC-δ translocation into the nucleus, MBG plus antibody: reduced
[4]
  Estimated avidity (KA) (antibody concentration at 50% maximal binding to antigen, or EC50), Antigen 1 (MBG-BSA): 0.6 nM
Na^+K^+-ATPase (NKA)
  inhibitory effect of MBG on NKA in presence of antibody: reduce the inhibitory effect of MBG on NKA
[5]
  binding affinity in direct ELISA: highest binding affinity

Reference: patent US10654925B2, “Anti-marinobufagenin antibodies and uses thereof” (priority 2018, dated 2020)
